Test results from publication PMC10711553, “Structural and biochemical analysis of the PARP1-homology region of PARP4/vault PARP”.

How the values were obtained:
PARP4 BRCT-WGR-CAT [1] = biological target: T1, PARP4 BRCT-WGR-CAT (Homo sapiens, UniProt Q9UKK3 1-573); experiment: EMSA; 100 nM RNA; apparent Kd; FP: 50 mM Tris pH 7.5, 50 mM NaCl, 0.05% NP40, 2 mM DTT, 5% glycerol, room temperature 30 min; EMSA: same but 20% glycerol, 100 nM nucleic acid, room temperature 30 min, gel at 4 C in Tris-glycine; details: protein: recombinant, tags: N-terminal His-SUMO tag, cleaved with TEV, Mfold secondary structure, annealed
T1 sequence: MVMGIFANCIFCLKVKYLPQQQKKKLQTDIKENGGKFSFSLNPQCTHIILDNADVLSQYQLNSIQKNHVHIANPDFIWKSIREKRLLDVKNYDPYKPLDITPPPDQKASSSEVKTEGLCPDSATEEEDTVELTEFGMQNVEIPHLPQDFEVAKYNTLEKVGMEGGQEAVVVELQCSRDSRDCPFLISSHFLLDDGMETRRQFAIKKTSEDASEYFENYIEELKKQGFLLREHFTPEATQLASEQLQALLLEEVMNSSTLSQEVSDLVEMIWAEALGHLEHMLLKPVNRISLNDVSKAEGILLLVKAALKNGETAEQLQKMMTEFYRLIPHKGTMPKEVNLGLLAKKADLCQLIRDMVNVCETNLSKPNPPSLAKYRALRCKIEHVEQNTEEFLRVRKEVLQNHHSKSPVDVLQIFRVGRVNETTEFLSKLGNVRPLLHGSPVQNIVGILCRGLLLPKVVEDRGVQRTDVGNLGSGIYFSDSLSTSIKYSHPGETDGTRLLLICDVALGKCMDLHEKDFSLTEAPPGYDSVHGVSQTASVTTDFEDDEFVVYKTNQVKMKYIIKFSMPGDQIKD

PARP4 WGR-CAT [2] = biological target: T2, PARP4 WGR-CAT (Homo sapiens, UniProt Q9UKK3 95-573); experiment: EMSA; 100 nM RNA; FP: 50 mM Tris pH 7.5, 50 mM NaCl, 0.05% NP40, 2 mM DTT, 5% glycerol, room temperature 30 min; EMSA: same but 20% glycerol, 100 nM nucleic acid, room temperature 30 min, gel at 4 C in Tris-glycine; details: protein: recombinant; tags: N-terminal His-SUMO tag, cleaved with TEV; label: none (SYBR Gold stain); Mfold secondary structure, annealed
T2 sequence: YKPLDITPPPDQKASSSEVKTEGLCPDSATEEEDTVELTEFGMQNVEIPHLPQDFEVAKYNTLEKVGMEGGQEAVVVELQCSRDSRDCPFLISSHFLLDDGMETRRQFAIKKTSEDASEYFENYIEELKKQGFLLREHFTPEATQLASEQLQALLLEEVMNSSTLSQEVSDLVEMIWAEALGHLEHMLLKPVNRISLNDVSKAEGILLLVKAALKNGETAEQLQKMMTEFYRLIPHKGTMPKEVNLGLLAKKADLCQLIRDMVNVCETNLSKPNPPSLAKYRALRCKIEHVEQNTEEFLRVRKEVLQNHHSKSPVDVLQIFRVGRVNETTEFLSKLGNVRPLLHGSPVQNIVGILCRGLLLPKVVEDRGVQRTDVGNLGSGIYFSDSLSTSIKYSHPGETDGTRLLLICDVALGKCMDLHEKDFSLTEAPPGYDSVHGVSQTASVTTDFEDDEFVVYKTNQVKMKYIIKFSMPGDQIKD

PARP4 WGR-CAT [3] = biological target: T2, PARP4 WGR-CAT; experiment: fluorescence polarization; 30 nM RNA; FP: 50 mM Tris pH 7.5, 50 mM NaCl, 0.05% NP40, 2 mM DTT, 5% glycerol, room temperature 30 min; EMSA: same but 20% glycerol, 100 nM nucleic acid, room temperature 30 min, gel at 4 C in Tris-glycine; details: protein: recombinant; tags: N-terminal His-SUMO tag, cleaved with TEV; label: 5'-6-FAM; Mfold secondary structure, annealed
PARP4 BRCT-WGR-CAT [4] = biological target: T1, PARP4 BRCT-WGR-CAT; experiment: fluorescence polarization; 30 nM RNA; apparent Kd; FP: 50 mM Tris pH 7.5, 50 mM NaCl, 0.05% NP40, 2 mM DTT, 5% glycerol, room temperature 30 min; EMSA: same but 20% glycerol, 100 nM nucleic acid, room temperature 30 min, gel at 4 C in Tris-glycine; details: protein: recombinant; tags: N-terminal His-SUMO tag, cleaved with TEV; label: 5'-6-FAM; Mfold secondary structure, annealed
PARP4 WGR-CAT [5] = biological target: T2, PARP4 WGR-CAT; experiment: EMSA; 100 nM DNA; FP: 50 mM Tris pH 7.5, 50 mM NaCl, 0.05% NP40, 2 mM DTT, 5% glycerol, room temperature 30 min; EMSA: same but 20% glycerol, 100 nM nucleic acid, room temperature 30 min, gel at 4 C in Tris-glycine; details: protein: recombinant; tags: N-terminal His-SUMO tag, cleaved with TEV; label: none stated (SYBR Gold stain); blunt

B1: HDV ribozyme RNA (84 nt) (structured_RNA)
RNA: GCCGGCCAUGGUCCCAGCCUCCUCGCUGGCGGCCGGUGGGCAACAUUCCGAGGGGACCGUCCCUCGGUAAUGGCGAAUGGGACA
With B1 the Kd (PARP4 BRCT-WGR-CAT [1]; label: none (SYBR Gold stain)) was 3.4 ± 0.3 µM and the binding result (PARP4 WGR-CAT [2]) was “no binding”.

B2: vtRNA1-2 (structured_RNA)
RNA: GGCUGGCUUUAGCUCAGCGGUUACUUCGAGUACAUUGUAACCACCUCUCUGGGUGGUUCGAGACCCGCGGGUGCUUUCCAGCUCUUUU
For B2, the Kd (PARP4 BRCT-WGR-CAT [1]; label: 5'-6-FAM) was 1.5 ± 0.4 µM, the binding result (PARP4 WGR-CAT [3]) was “no binding” and the Kd (PARP4 BRCT-WGR-CAT [4]) was 15 ± 9 µM.

B3: 47-bp DNA duplex (dsDNA)
DNA 1: CAGATCTACCGAATCAGTCCGACGACGCATCTGCACTACGAGGATAC
DNA 2: GTATCCTCGTAGTGCAGATGCGTCGTCGGACTGATTCGGTAGATCTG
B3: no binding (PARP4 WGR-CAT [5]).
